Assays:
[1] = target: FKBP / FRB (FKBP binding part of FRAP) interaction (Homo sapiens, UniProt P42345+P62942); test: Rapamycin-induced E[F64L]YFP fragment complementation (EYFP fluorescence) in stably transfected CHO-hIR cells; type: cell-based; conditions: CHO-hIR [PS1767+PS1768], 1 μM rapamycin
Protocol: Probes were co-transfected in pairs into CHO-hIR cells (supra), PS1769 with PS1771 and PS1767 with PS1768, using the transfection agent FuGENE™ 6 (Boehringer Mannheim Corp, USA) according to the method recommended by the suppliers. Cells were cultured in growth medium (HAM's F12 nutrient mix with Glutamax-1, 10% foetal bovine serum (FBS), 100 μg penicillin-streptomycin mixture ml^−1 (GibcoBRL, supplied by Life Technologies, Denmark)). Transfected cells were cultured in this medium, with the addition of two selection agents appropriate to the plasmids being used, being 1 mg/ml zeocin plus 0.5 mg/mlG418 sulphate. […]
After 10 to 12 days culture in the continuous presence of the selection agents, the resulting cell lines were judged to be stably transfected. For fluorescence microscopy, aliquots of cells were transferred to Lab-Tek chambered cover glasses (Nalge Nunc International, Naperville USA) and allowed to adhere for at least 24 hours to reach about 80% confluence. Images were routinely collected using a Nikon Diaphot 300 inverted fluorescence microscope (Nikon Corp., Tokyo, Japan) using ×20 (dry) and/or ×40 (oil immersion) objectives and coupled to a Orca ER charged coupled device (CCD) camera (Hammamatsu Photonics K. K., Hammamatsu City, Japan). […]
This is easily accomplished through fluorescence activated cell sorting (FACS) methods. […]

[2] = target: FRB-CtermEYFP173 (human; Aequorea victoria) (UniProt P42345); test: cell-based or functional assay
[3] = target: FKBP-CtermEYFP173 (human; Aequorea victoria) (UniProt P62942); test: cell-based or functional assay
FKBP-CtermEYFP173 (human; Aequorea victoria), sequence (P62942 other isoform, or with tags, fused parts or gaps, form in doubt): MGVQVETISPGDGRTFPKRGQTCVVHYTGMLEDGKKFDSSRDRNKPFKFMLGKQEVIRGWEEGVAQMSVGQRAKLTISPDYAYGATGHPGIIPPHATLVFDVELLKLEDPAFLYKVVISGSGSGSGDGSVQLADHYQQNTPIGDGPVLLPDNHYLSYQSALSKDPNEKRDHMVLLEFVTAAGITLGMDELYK

What does the source list for `CO[C@H]1C[C@@H]2CC[C@@H](C)[C@@](O)(O2)C(=O)C(=O)N2CCCC[C@H]2C(=O)O[C@H]([C@H](C)C[C@@H]2CC[C@@H](O)[C@H](OC)C2)CC(=O)[C@H](C)/C=C(\C)[C@@H](O)[C@@H](OC)C(=O)[C@H](C)C[C@H](C)/C=C/C=C/C=C/1C` [rapamycin]?
Proportion of cells with significantly greater EYFP fluorescence ([1]; after 4 hours): approximately 40%; Proportion of the cell population encompassed by the EYFP fluorescence response ([1]; after 16 hours): approximately 70%

For “NtermE[F64L]YFP172-FKBP (from UniProt P62942 1-108)”, which EC50 of FK506 against 100 nM rapamycin, EYFP fluorescence/cell, 'black' FACS group [2] is on record?
Its EC50 of FK506 against 100 nM rapamycin, EYFP fluorescence/cell, 'black' FACS group is 1200 nM.

“NtermE[F64L]YFP172-FRB (from UniProt P42345 2025-2114)” was tested. Which EC50 of FK506 against 100 nM rapamycin, EYFP fluorescence/cell, 'mid to low-green' FACS group [3] did it give?
Its EC50 of FK506 against 100 nM rapamycin, EYFP fluorescence/cell, 'mid to low-green' FACS group is 1200 nM.

And the EC50 of rapamycin for EYFP fluorescence, 'black' FACS group, 7 and 30 hours [3]?
The EC50 of rapamycin for EYFP fluorescence, 'black' FACS group, 7 and 30 hours was 100 nM.

And the EC50 of rapamycin for EYFP fluorescence, 'medium to low-green' FACS group, 7 and 30 hours [3]?
The EC50 of rapamycin for EYFP fluorescence, 'medium to low-green' FACS group, 7 and 30 hours was 250 nM.

And the half-time for development of fluorescence after 3 uM rapamycin [3]?
The half-time for development of fluorescence after 3 uM rapamycin was 5 h.

What about the increase in EYFP fluorescence over the unstimulated value, 'black' FACS group [3] of the same molecule?
The increase in EYFP fluorescence over the unstimulated value, 'black' FACS group was over 20 fold.

And the increase in EYFP fluorescence over the unstimulated value, 'medium to low-green' FACS group [3]?
The increase in EYFP fluorescence over the unstimulated value, 'medium to low-green' FACS group was over 20 fold.

And the proportion of cells with appreciable EYFP fluorescence before rapamycin (t=0) [3]?
Its proportion of cells with appreciable EYFP fluorescence before rapamycin (t=0) is under 5%.

What about the proportion of cells with significantly greater EYFP fluorescence 4 hours after 1 uM rapamycin [3] of the same molecule?
Its proportion of cells with significantly greater EYFP fluorescence 4 hours after 1 uM rapamycin is 40%.

And the proportion of responding cells 16 hours after 1 uM rapamycin [3]?
Its proportion of responding cells 16 hours after 1 uM rapamycin is 70%.

From patent US20030219717A1, “Fluorophore complementation products” (priority 2002, published 2003)
